Test results published in paper PMC2957411.

Assays:
[1] = target: T1, His6-HrpL (alternative sigma factor);core RNA polymerase (Epicentre) (Dickeya dadantii 3937;) (UniProt E0SE58+P0A7Z4+P0A8V2+P0A8T7+P0A800); experiment: EMSA
[2] = target: T1, His6-HrpL (alternative sigma factor);core RNA polymerase (Epicentre) (Dickeya dadantii 3937;); experiment: competition

| Sequence | binding [1] | binding [2] |
| --- | --- | --- |
| AAGTATCTGCAACGGATGCCCGCTCCGATCCCGATGCGGGCATCATGATGGATACTGGTTAATGAGTGACGCCAGCGGTGAAACGGTTCCCTGCCGTCGCCGGTTCGCCGCAAAAAAAGAAACCG (double strand) [hrpN promoter fragment with hrp box] | binds | – |
| CTTGGTGGCTGAGTCCATCTGGCCGTCGGTGATTGAGCTGATAGCATCGGTTTTCATTTTCTGCTCCTGGGCAGCGGTGGTCATCGCCGTGGTCGATGCCATGGTTTTGTCCAGAGACTGC (double strand) [hrpA ORF internal fragment (hrpAORF), no hrp box] | – | no binding |
| GATTTCGCTATGAACTTTGCGACTTACACAGTCATCGTGTTCATAGATTAAGTAGGAGATAATGCGAGGTGGTTCCGAAAGATATTCACTTTTTTCCCCTGGTGGTGATAACAGGATACAGCC (double strand) [hrpA promoter fragment with hrp box] | binds | – |
